Among the data in publication PMC10770758, “Protocatechuate hydroxylase is a novel group A flavoprotein monooxygenase with a unique substrate recognition mechanism” (The Journal of Biological Chemistry, 2023) are Km values, retold here.

One series relates to O=C(O)c1ccc(O)cc1. The experiment in a line: purified protein. It counts as biochemical, Xylophilus ampelinus. The settings on record: apparent, 0.25 mM NADPH, 20 mM Tris-HCl pH 7.9, 25 °C.
The test system of a further series is O=C(O)c1ccc(O)c(O)c1. The experiment in a line: purified protein. It is filed as biochemical, Xylophilus ampelinus. The settings on record: apparent, 0.25 mM NADPH, 20 mM Tris-HCl pH 7.9, 25 °C.

XaPobA (Xylophilus ampelinus; C347T): the Km is on record as 9.1 ± 3.4 × 10^−1 mM with O=C(O)c1ccc(O)cc1 and 3.2 ± 1.0 × 10^−1 mM with O=C(O)c1ccc(O)c(O)c1. XaPobA (Xylophilus ampelinus; M210A): in the series with O=C(O)c1ccc(O)c(O)c1, the Km is reported as 9.6 ± 0.3 × 10^−1 mM. Regarding XaPobA (Xylophilus ampelinus; W201A), the Km in the series on O=C(O)c1ccc(O)c(O)c1 was 6.5 ± 2.7 × 10^−1 mM. XaPobA (Xylophilus ampelinus; W201Y): the Km in the series with O=C(O)c1ccc(O)cc1 was 7.2 ± 2.2 × 10^−2 mM; in the series on O=C(O)c1ccc(O)c(O)c1 it was 5.0 ± 1.1 × 10^−1 mM.
